Values joined by “and” are separate entries in the source; they are usually repeats but may differ in a detail not shown here. Equal entries are not always repeated.
B1: chemically reduced and alkylated recombinant human peroxiredoxin-5 (enzyme)
chain: APIKVGDAIPAVEVFEGEPGNKVNLAELFKGKKGVLFGVPGAFTPGCSKTHLPGFVEQAEALKAKGVQVVACLSVNDAFVTGEWGRAHKAEGKVRLLADPTGAFGKETDLLLDDSLVSIFGNRRLKRFSMVVQDGIVKALNVEPDGTGLTCSLAPNIISQL
modifications: cysteine thiols alkylated with iodoacetamide (carbamidomethyl groups), more likely on the two Cys involved in the disulfide bond (C47, C151)
notes: human peroxiredoxin-5 (PRDX5), wild type, same construct as m1; Made from m1 by chemical treatment; Mainly a dimer by SEC-MALS; also called r/aPRDX5; reduced PRDX5; source: dsPRDX5 (E. coli M15, purified) treated with 10 mM DTT, then 55 mM iodoacetamide, ultra-filtered; not shown: His6, N-terminal, kept
B2: recombinant wild-type N-terminal 6xHis-tagged human peroxiredoxin-5, disulfide (oxidized) form (enzyme)
chain: B1 chain
modifications: disulfide bridge between C47 and C151
notes: human peroxiredoxin-5 (PRDX5), wild type; calculated mass with reduced thiols 18,297.81 Da; Mainly a dimer by SEC-MALS, with ~30% monomers; also called dsPRDX5; PRDX5; source: E. coli M15 (pRep4), pQE-30, purified (Ni-NTA), dialyzed against PBS; not shown: His6, N-terminal, kept
B3: hyperoxidized recombinant human peroxiredoxin-5 (enzyme)
chain: B1 chain
modifications: Cys sulfinic (-SO2H) and/or sulfonic (-SO3H) acids; only partially hyperoxidized (~42% of species), a proportion of species keeps the disulfide bridge
notes: human peroxiredoxin-5 (PRDX5), wild type, same construct as m1; Made from m1 by chemical treatment; a mix of species; Mainly a dimer by SEC-MALS; also called s/sPRDX5; hyperoxidized PRDX5; source: dsPRDX5 (E. coli M15, purified) treated with 10 mM DTT, then 5 mM H2O2, ultra-filtered; not shown: His6, N-terminal, kept

Assays:
[1] = biological target: recombinant human TLR4 (R&D Systems) (human) (UniProt O00206); assay: AFM single-molecule force spectroscopy; PRDX5 grafted on the AFM tip by a PEG24 linker, TLR4 covalently attached to an alkanethiol SAM on gold (NHS/EDC); PBS, ~25 °C; retraction speeds 100 nm/s to 10 µm/s; Bell-Evans fit
Sequence of recombinant human TLR4 (R&D Systems) (human) (O00206 24-631): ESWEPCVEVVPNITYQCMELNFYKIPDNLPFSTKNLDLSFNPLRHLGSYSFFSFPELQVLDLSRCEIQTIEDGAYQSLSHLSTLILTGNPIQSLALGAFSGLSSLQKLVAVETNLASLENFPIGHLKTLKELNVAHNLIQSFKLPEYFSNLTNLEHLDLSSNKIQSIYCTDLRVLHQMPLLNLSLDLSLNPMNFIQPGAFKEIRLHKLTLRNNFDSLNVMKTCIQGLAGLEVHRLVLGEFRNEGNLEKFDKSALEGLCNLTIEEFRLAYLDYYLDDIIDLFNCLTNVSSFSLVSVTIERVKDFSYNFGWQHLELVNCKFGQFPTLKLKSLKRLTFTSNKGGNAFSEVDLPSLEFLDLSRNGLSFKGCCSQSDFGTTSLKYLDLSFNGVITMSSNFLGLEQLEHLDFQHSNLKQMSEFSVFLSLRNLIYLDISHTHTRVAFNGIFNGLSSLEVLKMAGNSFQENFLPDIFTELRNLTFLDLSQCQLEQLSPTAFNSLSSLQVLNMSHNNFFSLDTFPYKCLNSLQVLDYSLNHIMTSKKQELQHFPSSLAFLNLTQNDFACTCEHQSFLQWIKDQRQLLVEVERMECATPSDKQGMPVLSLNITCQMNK

[2] = biological target: TLR4-YFP stably expressed on HEK293 MD2-CD14 cells (UniProt O00206)
Sequence of TLR4-YFP stably expressed on HEK293 MD2-CD14 cells (UniProt O00206) (O00206 24-839): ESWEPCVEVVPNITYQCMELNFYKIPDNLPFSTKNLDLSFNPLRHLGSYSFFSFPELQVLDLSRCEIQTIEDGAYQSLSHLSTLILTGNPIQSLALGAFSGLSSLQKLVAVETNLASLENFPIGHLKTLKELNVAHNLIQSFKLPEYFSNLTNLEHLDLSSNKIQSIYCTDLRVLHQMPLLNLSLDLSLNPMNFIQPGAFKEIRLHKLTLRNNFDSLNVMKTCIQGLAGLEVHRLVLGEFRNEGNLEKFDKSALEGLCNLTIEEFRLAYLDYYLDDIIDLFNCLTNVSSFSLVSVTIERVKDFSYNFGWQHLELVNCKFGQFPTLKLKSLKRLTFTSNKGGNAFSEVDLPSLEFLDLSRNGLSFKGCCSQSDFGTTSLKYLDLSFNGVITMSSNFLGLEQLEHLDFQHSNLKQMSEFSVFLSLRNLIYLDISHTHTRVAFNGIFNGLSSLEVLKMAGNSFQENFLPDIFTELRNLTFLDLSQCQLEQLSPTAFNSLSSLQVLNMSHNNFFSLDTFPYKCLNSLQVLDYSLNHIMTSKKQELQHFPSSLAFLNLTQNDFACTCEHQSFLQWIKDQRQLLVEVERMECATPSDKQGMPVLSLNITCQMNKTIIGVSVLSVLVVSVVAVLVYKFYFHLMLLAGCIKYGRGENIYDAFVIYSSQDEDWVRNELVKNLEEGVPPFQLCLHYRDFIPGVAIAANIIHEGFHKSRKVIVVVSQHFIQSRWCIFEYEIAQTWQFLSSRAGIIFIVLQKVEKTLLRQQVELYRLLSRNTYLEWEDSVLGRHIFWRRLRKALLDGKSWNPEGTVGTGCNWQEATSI

[3] = biological target: TLR4-YFP stably expressed on HEK293 MD2-CD14 cells (UniProt O00206); assay: flow cytometry on cells; living HEK293 MD2-CD14 TLR4 cells exposed to 1 µM of the PRDX5 redox forms or increasing dsPRDX5 in DMEM, 40 min on ice; detected with anti-PRDX5 serum and Alexa Fluor 647 Plus secondary antibody; MFI of untreated cells subtracted
[4] = biological target: C47S mutant N-terminal 6xHis-tagged human peroxiredoxin-5 (human); assay: SEC-MALS; 50 µL loaded on Superdex 200 Increase 10/300 GL (and Superdex 75 Increase, data not shown), PBS running buffer pH 7.4; Zimm fit
[5] = biological target: the molecule itself; assay: as above
[6] = biological target: TLR4-YFP stably expressed on HEK293 MD2-CD14 cells (UniProt O00206 24-839); assay: cell-based or functional assay
Sequence of TLR4-YFP stably expressed on HEK293 MD2-CD14 cells (UniProt O00206 24-839) (O00206 24-839): as above

Row | Molecule | koff [1] | IL-8 secretion from HEK293 MD2-CD14 TLR4 cells, 2 µM protein, 16 h, ELISA [2] | fold decrease in binding propensity compared to dsPRDX5 [3] | stoichiometry N [4] | stoichiometry N [5] | IL-8 secretion from HEK293 MD2-CD14 TLR4 cells, 2 µM protein, 16 h, ELISA [6]
1 | recombinant wild-type N-terminal 6xHis-tagged human peroxiredoxin-5, disulfide (oxidized) form (from UniProt P30044 54-214) | 1.02 s⁻¹ |  |  |  |  | 
2 | C47S mutant N-terminal 6xHis-tagged human peroxiredoxin-5 (enzyme) | 1.97 s⁻¹ | 893 pg/mL | 3 fold | 2 and 4 |  | 
3 | B1 | 2.47 s⁻¹ |  |  |  | 2 | 2440 pg/mL
4 | B2 |  |  |  |  | 2 | 4610 pg/mL
5 | B3 |  |  |  |  | 2 and 4 | 1450 pg/mL

— article PMC8750366, “Role of the Redox State of Human Peroxiredoxin-5 on Its TLR4-Activating DAMP Function” (Antioxidants, 2021)
